Consider 21 molecules from patent publication US20220010021A1 (Sanofi, published 2022).

One assay has as its target T1, human beta-Klotho (KLB) (human, UniProt Q86Z14 53-997).
T1 construct: Bought soluble protein; also called human KLB; ß-Klotho
T1 sequence (looked up): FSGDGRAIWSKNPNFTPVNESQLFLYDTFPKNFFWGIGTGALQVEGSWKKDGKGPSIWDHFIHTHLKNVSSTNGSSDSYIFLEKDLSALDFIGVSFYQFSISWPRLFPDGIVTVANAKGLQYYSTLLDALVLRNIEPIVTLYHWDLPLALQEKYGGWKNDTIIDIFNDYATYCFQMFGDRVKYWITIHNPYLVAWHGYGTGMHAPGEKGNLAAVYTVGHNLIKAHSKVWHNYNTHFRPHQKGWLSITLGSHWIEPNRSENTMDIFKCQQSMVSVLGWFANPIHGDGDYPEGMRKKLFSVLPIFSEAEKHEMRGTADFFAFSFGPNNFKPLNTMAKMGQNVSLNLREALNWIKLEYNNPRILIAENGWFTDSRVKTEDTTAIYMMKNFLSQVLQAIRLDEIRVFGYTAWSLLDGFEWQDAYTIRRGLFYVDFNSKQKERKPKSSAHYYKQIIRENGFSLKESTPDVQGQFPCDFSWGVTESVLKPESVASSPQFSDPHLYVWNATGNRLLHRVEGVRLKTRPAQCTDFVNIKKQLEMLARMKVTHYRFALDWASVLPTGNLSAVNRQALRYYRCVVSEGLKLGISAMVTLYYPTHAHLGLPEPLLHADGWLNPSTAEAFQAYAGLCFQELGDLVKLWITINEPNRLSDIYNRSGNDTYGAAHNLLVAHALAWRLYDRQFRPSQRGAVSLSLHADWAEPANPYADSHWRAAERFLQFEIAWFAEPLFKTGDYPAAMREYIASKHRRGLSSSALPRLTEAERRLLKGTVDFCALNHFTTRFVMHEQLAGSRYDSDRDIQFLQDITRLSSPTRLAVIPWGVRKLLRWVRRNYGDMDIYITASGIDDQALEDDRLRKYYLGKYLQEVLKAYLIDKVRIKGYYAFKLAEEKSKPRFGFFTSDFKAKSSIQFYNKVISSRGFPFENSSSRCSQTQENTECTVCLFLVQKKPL
The assay is described as follows: BLI off-rate screen, supernatant.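 Note: expression supernatants tested at 25 µg/mL, dissociation followed for 1800 s in D-PBS with 0.1% BSA.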

Assay [1] has as its target cell surface receptor composed of FGFR1c and co-receptor beta-Klotho (KLB) (human, UniProt P11362 22-822; Q86Z14 1-1044). Description: cell-based or functional assay. For Mean E max, Luciferase reporter gene assay: reference of the scale not given here.

Broadly, the koff is a measure of how fast the partners let go of each other. The low end stands for slow dissociation, the high end for fast dissociation.

cell surface receptor composed of FGFR1c and co-receptor beta-Klotho (KLB), sequence (P11362 22-822, chain 1 of 2): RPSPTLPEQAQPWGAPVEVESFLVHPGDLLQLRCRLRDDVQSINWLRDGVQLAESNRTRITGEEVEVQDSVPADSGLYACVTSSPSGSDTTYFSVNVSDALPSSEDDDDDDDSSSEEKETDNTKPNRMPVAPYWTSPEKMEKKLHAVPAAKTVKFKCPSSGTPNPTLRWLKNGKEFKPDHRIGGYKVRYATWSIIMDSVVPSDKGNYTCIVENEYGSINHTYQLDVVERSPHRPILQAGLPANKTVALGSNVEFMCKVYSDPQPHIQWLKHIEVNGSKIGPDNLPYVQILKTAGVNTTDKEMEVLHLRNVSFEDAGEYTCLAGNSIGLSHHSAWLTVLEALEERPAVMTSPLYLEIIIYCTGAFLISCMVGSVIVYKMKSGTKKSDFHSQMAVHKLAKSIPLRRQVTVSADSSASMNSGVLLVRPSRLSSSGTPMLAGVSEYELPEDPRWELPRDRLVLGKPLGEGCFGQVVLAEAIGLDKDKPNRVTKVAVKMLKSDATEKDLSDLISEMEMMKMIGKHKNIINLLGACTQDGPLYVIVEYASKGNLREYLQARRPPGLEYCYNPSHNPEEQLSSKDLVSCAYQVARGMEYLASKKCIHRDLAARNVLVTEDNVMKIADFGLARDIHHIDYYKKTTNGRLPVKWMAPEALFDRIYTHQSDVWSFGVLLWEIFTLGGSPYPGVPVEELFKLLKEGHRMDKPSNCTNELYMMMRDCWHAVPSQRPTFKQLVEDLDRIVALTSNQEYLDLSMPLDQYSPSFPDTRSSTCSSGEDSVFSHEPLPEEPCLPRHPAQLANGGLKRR
cell surface receptor composed of FGFR1c and co-receptor beta-Klotho (KLB), sequence (Q86Z14 whole entry, chain 2 of 2): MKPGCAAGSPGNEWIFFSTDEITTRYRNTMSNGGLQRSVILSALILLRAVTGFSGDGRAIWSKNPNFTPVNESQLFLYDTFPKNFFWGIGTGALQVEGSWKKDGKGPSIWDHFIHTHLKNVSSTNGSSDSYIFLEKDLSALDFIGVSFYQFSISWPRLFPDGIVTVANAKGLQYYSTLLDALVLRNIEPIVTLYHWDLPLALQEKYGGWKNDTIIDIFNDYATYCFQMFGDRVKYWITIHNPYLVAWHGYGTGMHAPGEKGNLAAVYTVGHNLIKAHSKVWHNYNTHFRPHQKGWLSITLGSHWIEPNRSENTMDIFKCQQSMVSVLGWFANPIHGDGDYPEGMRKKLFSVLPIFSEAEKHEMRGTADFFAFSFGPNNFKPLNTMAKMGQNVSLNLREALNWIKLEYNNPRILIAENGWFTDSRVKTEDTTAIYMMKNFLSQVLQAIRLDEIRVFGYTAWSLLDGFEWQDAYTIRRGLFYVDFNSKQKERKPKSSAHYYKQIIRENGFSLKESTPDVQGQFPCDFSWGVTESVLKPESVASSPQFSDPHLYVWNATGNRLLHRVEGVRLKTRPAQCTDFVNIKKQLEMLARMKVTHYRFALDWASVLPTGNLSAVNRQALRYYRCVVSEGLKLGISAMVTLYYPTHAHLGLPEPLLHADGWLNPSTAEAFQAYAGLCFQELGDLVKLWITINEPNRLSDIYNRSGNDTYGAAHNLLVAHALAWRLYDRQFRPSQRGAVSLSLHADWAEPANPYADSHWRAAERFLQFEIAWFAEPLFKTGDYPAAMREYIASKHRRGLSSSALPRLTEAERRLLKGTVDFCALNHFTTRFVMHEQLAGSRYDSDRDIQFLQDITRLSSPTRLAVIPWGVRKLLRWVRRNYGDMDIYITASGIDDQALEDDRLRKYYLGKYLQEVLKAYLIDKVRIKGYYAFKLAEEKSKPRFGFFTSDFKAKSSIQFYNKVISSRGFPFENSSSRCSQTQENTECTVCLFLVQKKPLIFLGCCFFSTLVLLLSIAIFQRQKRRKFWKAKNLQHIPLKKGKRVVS

B1: 16H7 light chain variant E30L (antibody, V domains shown)
VH: not shown
VL: SYVLTQPPSVSVAPGQTARITCGGNNIGSLSVHWYQQKPGQAPVLVVYDDSDRPSGIPERFSGSNSGNTATLTISRVEAGDEADYYCQVWDGNSDHVVFGGGTKLTVLG
notes: copies: 2 + 2
In the case of B1, the koff with human beta-Klotho (KLB) came out at 6.9e-05 s⁻¹. In addition, in assay [1], the “Mean E max, Luciferase reporter gene assay” value (from here on “Mean E max”) was found to be 96% and the “Mean EC50, Luciferase reporter gene assay” value (“Mean EC50” for short) came to 0.16 nM.

B2: 16H7 light chain variant G28H (antibody, human IgG4 S228P, lambda, V domains shown)
VH: not shown
VL: SYVLTQPPSVSVAPGQTARITCGGNNIHSESVHWYQQKPGQAPVLVVYDDSDRPSGIPERFSGSNSGNTATLTISRVEAGDEADYYCQVWDGNSDHVVFGGGTKLTVLG
Molecule B2 had a koff with human beta-Klotho (KLB) of 1.8e-05 s⁻¹. Also, in assay [1], the “Mean E max” value is 108% and the “Mean EC50” value was 0.165 nM.

B3: 16H7 light chain variant E30N (antibody, V domains shown)
VH: not shown
VL: SYVLTQPPSVSVAPGQTARITCGGNNIGSNSVHWYQQKPGQAPVLVVYDDSDRPSGIPERFSGSNSGNTATLTISRVEAGDEADYYCQVWDGNSDHVVFGGGTKLTVLG
notes: copies: 2 + 2
In the case of B3, the koff with human beta-Klotho (KLB) was determined as 2.4e-05 s⁻¹. Besides, in assay [1], the “Mean E max” value came to 110% and the “Mean EC50” value is 0.163 nM.

B4: 16H7 light chain variant E30Q (antibody, V domains shown)
VH: not shown
VL: SYVLTQPPSVSVAPGQTARITCGGNNIGSQSVHWYQQKPGQAPVLVVYDDSDRPSGIPERFSGSNSGNTATLTISRVEAGDEADYYCQVWDGNSDHVVFGGGTKLTVLG
notes: copies: 2 + 2
Turning to B4, in the assay with human beta-Klotho (KLB), the koff worked out at 1e-07 s⁻¹. Also, in assay [1], the “Mean E max” value is 99% and the “Mean EC50” value is 0.123 nM.

B5: 16H7 light chain variant G28E (antibody, human IgG4 S228P, lambda, V domains shown)
VH: not shown
VL: SYVLTQPPSVSVAPGQTARITCGGNNIESESVHWYQQKPGQAPVLVVYDDSDRPSGIPERFSGSNSGNTATLTISRVEAGDEADYYCQVWDGNSDHVVFGGGTKLTVLG
As to B5, the koff with human beta-Klotho (KLB) came out at 1.8e-05 s⁻¹. In addition, in assay [1], the “Mean E max” value was found to be 105% and the “Mean EC50” value was found to be 0.12 nM.

B6: 16H7 light chain variant G28C (antibody, human IgG4 S228P, lambda, V domains shown)
VH: not shown
VL: SYVLTQPPSVSVAPGQTARITCGGNNICSESVHWYQQKPGQAPVLVVYDDSDRPSGIPERFSGSNSGNTATLTISRVEAGDEADYYCQVWDGNSDHVVFGGGTKLTVLG
Consider B6, for which the koff with human beta-Klotho (KLB) was determined as 9.1e-06 s⁻¹. Also, in assay [1], the “Mean E max” value was determined as 100% and the “Mean EC50” value came out at 0.103 nM.

B7: 16H7 light chain variant G28F (antibody, human IgG4 S228P, lambda, V domains shown)
VH: not shown
VL: SYVLTQPPSVSVAPGQTARITCGGNNIFSESVHWYQQKPGQAPVLVVYDDSDRPSGIPERFSGSNSGNTATLTISRVEAGDEADYYCQVWDGNSDHVVFGGGTKLTVLG
Molecule B7 gave a koff in the assay with human beta-Klotho (KLB) of 3.9e-05 s⁻¹. In assay [1], the “Mean E max” value turned out to be 102% and the “Mean EC50” value is 0.124 nM.

B8: 16H7 light chain variant G28K (antibody, human IgG4 S228P, lambda, V domains shown)
VH: not shown
VL: SYVLTQPPSVSVAPGQTARITCGGNNIKSESVHWYQQKPGQAPVLVVYDDSDRPSGIPERFSGSNSGNTATLTISRVEAGDEADYYCQVWDGNSDHVVFGGGTKLTVLG
Take B8: the koff with human beta-Klotho (KLB) was 3.3e-05 s⁻¹. In assay [1], the “Mean E max” value was 108% and the “Mean EC50” value turned out to be 0.149 nM.

B9: 16H7 light chain variant G28D (antibody, human IgG4 S228P, lambda, V domains shown)
VH: not shown
VL: SYVLTQPPSVSVAPGQTARITCGGNNIDSESVHWYQQKPGQAPVLVVYDDSDRPSGIPERFSGSNSGNTATLTISRVEAGDEADYYCQVWDGNSDHVVFGGGTKLTVLG
Regarding B9, the koff with human beta-Klotho (KLB) is 4e-05 s⁻¹. For the same molecule, in assay [1], the “Mean E max” value came to 107% and the “Mean EC50” value was 0.126 nM.

B10: 16H7 light chain variant G28N (antibody, human IgG4 S228P, lambda, V domains shown)
VH: not shown
VL: SYVLTQPPSVSVAPGQTARITCGGNNINSESVHWYQQKPGQAPVLVVYDDSDRPSGIPERFSGSNSGNTATLTISRVEAGDEADYYCQVWDGNSDHVVFGGGTKLTVLG
In the assay with human beta-Klotho (KLB), B10 came in with a koff of 1.8e-05 s⁻¹. Besides, in assay [1], the “Mean E max” value is 113% and the “Mean EC50” value stood at 0.111 nM.

B11: 16H7 light chain variant G28S (antibody, human IgG4 S228P, lambda, V domains shown)
VH: not shown
VL: SYVLTQPPSVSVAPGQTARITCGGNNISSESVHWYQQKPGQAPVLVVYDDSDRPSGIPERFSGSNSGNTATLTISRVEAGDEADYYCQVWDGNSDHVVFGGGTKLTVLG
The molecule B11 showed a koff with human beta-Klotho (KLB) of 2.3e-06 s⁻¹. Moreover, in assay [1], the “Mean E max” value was determined as 109% and the “Mean EC50” value turned out to be 0.14 nM.

B12: 16H7 light chain variant E30S (antibody, human IgG4 S228P, lambda, V domains shown)
VH: not shown
VL: SYVLTQPPSVSVAPGQTARITCGGNNIGSSSVHWYQQKPGQAPVLVVYDDSDRPSGIPERFSGSNSGNTATLTISRVEAGDEADYYCQVWDGNSDHVVFGGGTKLTVLG
B12 yielded a koff with human beta-Klotho (KLB) of 1.6e-05 s⁻¹. Further, in assay [1], the “Mean E max” value amounted to 114% and the “Mean EC50” value turned out to be 0.132 nM.

B13: 16H7 light chain variant E30R (antibody, V domains shown)
VH: not shown
VL: SYVLTQPPSVSVAPGQTARITCGGNNIGSRSVHWYQQKPGQAPVLVVYDDSDRPSGIPERFSGSNSGNTATLTISRVEAGDEADYYCQVWDGNSDHVVFGGGTKLTVLG
notes: copies: 2 + 2
In turn, B13 displayed a koff in the assay with human beta-Klotho (KLB) of 3.7e-05 s⁻¹. In assay [1], the “Mean E max” value amounted to 96% and the “Mean EC50” value is 0.162 nM.

B14: 16H7 light chain variant G28P (antibody, human IgG4 S228P, lambda, V domains shown)
VH: not shown
VL: SYVLTQPPSVSVAPGQTARITCGGNNIPSESVHWYQQKPGQAPVLVVYDDSDRPSGIPERFSGSNSGNTATLTISRVEAGDEADYYCQVWDGNSDHVVFGGGTKLTVLG
In turn, B14 gave an off-rate constant (koff) with human beta-Klotho (KLB) of 6.2e-05 s⁻¹. In assay [1], the “Mean E max” value worked out at 103% and the “Mean EC50” value came out at 0.132 nM.

B15: 16H7 light chain variant G28I (antibody, human IgG4 S228P, lambda, V domains shown)
VH: not shown
VL: SYVLTQPPSVSVAPGQTARITCGGNNIISESVHWYQQKPGQAPVLVVYDDSDRPSGIPERFSGSNSGNTATLTISRVEAGDEADYYCQVWDGNSDHVVFGGGTKLTVLG
Turning to B15, the koff in the assay with human beta-Klotho (KLB) came to 3.3e-05 s⁻¹. In addition, in assay [1], the “Mean E max” value was 112% and the “Mean EC50” value turned out to be 0.132 nM.

B16: 16H7 light chain variant G28R (antibody, human IgG4 S228P, lambda, V domains shown)
VH: not shown
VL: SYVLTQPPSVSVAPGQTARITCGGNNIRSESVHWYQQKPGQAPVLVVYDDSDRPSGIPERFSGSNSGNTATLTISRVEAGDEADYYCQVWDGNSDHVVFGGGTKLTVLG
Take B16: the koff in the assay with human beta-Klotho (KLB) amounted to 8.5e-05 s⁻¹. In assay [1], the “Mean E max” value came to 102% and the “Mean EC50” value was 0.138 nM.

B17: 16H7 light chain variant E30V (antibody, V domains shown)
VH: not shown
VL: SYVLTQPPSVSVAPGQTARITCGGNNIGSVSVHWYQQKPGQAPVLVVYDDSDRPSGIPERFSGSNSGNTATLTISRVEAGDEADYYCQVWDGNSDHVVFGGGTKLTVLG
notes: copies: 2 + 2
Turning to B17, the off-rate constant (koff) with human beta-Klotho (KLB) amounted to 4.1e-05 s⁻¹. Also, in assay [1], the “Mean E max” value came out at 108% and the “Mean EC50” value was 0.14 nM.

B18: 16H7 light chain variant G28L (antibody, human IgG4 S228P, lambda, V domains shown)
VH: not shown
VL: SYVLTQPPSVSVAPGQTARITCGGNNILSESVHWYQQKPGQAPVLVVYDDSDRPSGIPERFSGSNSGNTATLTISRVEAGDEADYYCQVWDGNSDHVVFGGGTKLTVLG
B18 had a koff with human beta-Klotho (KLB) of 6.1e-06 s⁻¹. In assay [1], the “Mean E max” value was found to be 104% and the “Mean EC50” value stood at 0.137 nM.

B19: 16H7 light chain variant E30M (antibody, V domains shown)
VH: not shown
VL: SYVLTQPPSVSVAPGQTARITCGGNNIGSMSVHWYQQKPGQAPVLVVYDDSDRPSGIPERFSGSNSGNTATLTISRVEAGDEADYYCQVWDGNSDHVVFGGGTKLTVLG
notes: copies: 2 + 2
Consider B19, for which the off-rate constant (koff) in the assay with human beta-Klotho (KLB) came out at 3.8e-05 s⁻¹. For the same molecule, in assay [1], the “Mean E max” value amounted to 100% and the “Mean EC50” value is 0.12 nM.

B20: 16H7 light chain variant E30Y (antibody, V domains shown)
VH: not shown
VL: SYVLTQPPSVSVAPGQTARITCGGNNIGSYSVHWYQQKPGQAPVLVVYDDSDRPSGIPERFSGSNSGNTATLTISRVEAGDEADYYCQVWDGNSDHVVFGGGTKLTVLG
notes: copies: 2 + 2
On to B20, for which, in the assay with human beta-Klotho (KLB), the off-rate constant (koff) came to 7.6e-05 s⁻¹. For the same molecule, in assay [1], the “Mean E max” value was 107% and the “Mean EC50” value was found to be 0.152 nM.

B21: 16H7 light chain variant E30T (antibody, V domains shown)
VH: not shown
VL: SYVLTQPPSVSVAPGQTARITCGGNNIGSTSVHWYQQKPGQAPVLVVYDDSDRPSGIPERFSGSNSGNTATLTISRVEAGDEADYYCQVWDGNSDHVVFGGGTKLTVLG
notes: copies: 2 + 2
As to B21, the off-rate constant (koff) in the assay with human beta-Klotho (KLB) worked out at 4.9e-05 s⁻¹. In assay [1], the “Mean E max” value stood at 100% and the “Mean EC50” value came to 0.105 nM.
